Biological target: stabilized prefusion SARS-CoV-2 S ectodomain (SARS-CoV-2) (UniProt P0DTC2)
Experiment: negative-stain electron microscopy

Substance | stoichiometry N (Fab per trimer) | stoichiometry N
COVA1-12 Fab | 1 | 
COVA2-04 Fab | 1 | 
COVA2-07 Fab | 1 | 
COVA2-15 Fab |  | 3 per trimer
COVA2-39 Fab | 1 | 
